Assay results taken from patent publication US20140079722A1, “EXTRACELLULAR TARGETED DRUG CONJUGATES” (CENTROSE, LLC, priority 2011, published 2014).

Legend:
[1] = Single-dose tolerated dose (MTD), tail vein; type: in vivo, BALB/c mice
Experimental: EDC M53-PEG24-CEN09-106 preparations with drug loading of 2, 5 or 9 drugs per antibody were administered to BALB/c mice (Harlan Laboratories, n=1) in a single dose of 25, 50, 100 and 200 mg/kg via the tail vein to determine single-dose MTDs. Mice were monitored daily for 24 days, and both weight and clinical observations were recorded (weight measured at least twice a week and evaluation for overt signs of toxicity conducted at least twice a day).

PANC-1 xenograft = PANC-1 xenograft model, alone and with gemcitabine; type: in vivo, C.B-17/IcrHsd-Prkdc scid Lyst bg mice
Experimental: A disease model of pancreatic cancer was established by implanting 5×10^6 PANC-1 cells in 100 μL DMEM into the left flank of 7 week old female C.B-17/IcrHsd-Prkdc^scidLyst^bg mice. Mice were then treated with M53-PEG24-CEN09-106 with a drug loading of 8 and/or gemcitabine when the tumor size in groups of 3 animals averaged ˜500 mm^3. Treatments consisted of either vehicle control, M53-PEG24-CEN09-106 at 0.2, 1 and 5 mg/kg, with and without 60 mg/kg gemcitabine or 60 mg/kg gemcitabine alone and consisted of multiple injections using the M53-PEG24-CEN09-106 schedule of one injection every 7 days for 3 injections (q7d×3) administered i.v. and the gemcitabine schedule of one injection every 3 days for 5 injections (q3d×5) administered i.p. Tumor volumes were measured for each group using calibrated vernier calipers and plotted against first day of tumor implant for 28 days post-initial dose, graphed and shown in FIG. 6.

[2] = Single intraperitoneal dose tolerability; type: in vivo, male BALB/c mice; conditions: drug loading of 2, 500 mg/kg intraperitoneal
Experimental: In a separate experiment, male BALB/c mice (BALB/cAnNHsd, Harlan Laboratories) were administered a single and immediate dose of 500 mg/kg of M53-PEG24-CEN09-106 with a drug loading of 2 drugs per antibody by intraperitoneal injection. Animal weights were recorded over a 22 day period and visual observations were made over a period of 146 days and compared to mice receiving a vehicle control. […] Mice regained normal control body weight by day 15.

[3] = Pharmacokinetics and serum stability, antibody and drug specific ELISA; type: in vivo, Balb/c mice; conditions: for serum half-life of the antibody portion / serum half-life of the steroid drug portion: Balb/c mice; for serum half-life of the antibody portion: EDC drug loading of 3; for serum half-life of the steroid drug portion: drug loading of 3; for serum stability half-life of the EDC: from ratio of slopes of serum decay of drug and antibody portions
Experimental: The steroid drug pharmacokinetics of M53-PEG24-CEN09-106 were measured using the drug specific ELISA described below. The comparison between the two ELISA results (antibody concentrations minus drug concentrations) was used to determine the rate of drug breakdown and thus examine M53-PEG24-CEN09-106 stability.
Serum was isolated from blood samples acquired by retro-orbital blood collection at 1, 2, 4, 8, 16, 26, and 40 days post-injection. […] Plasma concentrations of the steroid drug in M53-PEG24-CEN09-106 were measured as follows. Antigen coated ELISA plates were washed (×3) with PBS pH 7, blocked 30 min with PBS pH 7 containing 1% NFDM (PBS+NFDM), and then washed (×3) with PBS, pH 7. Diluted serum samples and standard curves of M53-PEG24-CEN09-106 were prepared in the above blocking buffer and applied to coated wells, incubated 30 min at RT, and the wells were washed (×3) with PBS, pH 7. Biotinylated 25C2E3 (a monoclonal IgG1 antibody specific for the steroid portion of PEG24-CEN09-106 and conjugated to biotin [Thermo Scientific, PN 21911]) was diluted to 100 ng/mL in PBS+NFDM and added (100 uL) to each well, incubated 30 min at RT, and the wells washed (×3) with PBS, pH 7. PNPP at 1 mg/mL in 1M DEA with 50 mM MgCl2, pH 9.8 was added (100 uL per well), and the absorbance at 405 nm was determined using a Wallac Victor^2 Model 1420-041 assay plate reader (Perkin Elmer, Gaithersburg, Md.) every 5 minutes for a total of 6 reads.
For both ELISAs, absorbance values from known standards were plotted as absorbance over time, generating a linear slope for each concentration. The slopes generated were then plotted against the respective concentrations of the standards, creating a second linear plot. The absorbance values for the unknown serum samples were plotted over time, establishing a slope for unknown sample. The linear estimate from the slope versus concentration plot was then used to extrapolate concentrations for each unknown sample based on their slope.
To determine serum stability of the intact EDC (drug release from the antibody over time) in these samples, the ratio of the slopes of serum decay of the drug portion to the serum decay of the antibody portion were calculated.

H520 = assay: In vitro cancer cell cytotoxicity (CellTiter-Glo cell viability); type: cell-based, human
Description: EDCs were constructed using linker-ready agents PEG24-CEN09-106, PEG24-CEN09-107, PEG24-CEN10-110 and PEG24-CEN-319. As described in Example 1, linker-ready agent PEG24-CEN-319 contain digitoxigenin while the others contain scillarenin. Linker-ready agents PEG24-CEN09-106, PEG24-CEN09-107, PEG24-CEN10-110 all use different linkers. Specifically, PEG24-CEN09-106 and PEG24-CEN09-107 have different sugars in the linker, while PEG24-CEN10-110 contains a longer linker that includes a primary amine.
All of the cell lines below, except H520, express the Na,K-ATPase with the dysadherin subunit and so present the target of the antibody and drug in close proximity.

B1: M53-PEG24-CEN09-106: Class 1 EDC: antibody M53 conjugated to linker-ready agent PEG24-CEN09-106 (scillarenin, 4-amino-xyloside, PEG24) (conjugate)
heavy: EVQLVESGGGLVQPKGTLKLSCAASGFSFNTHAMNWVRQAPGKSLEWVARTMSKSNNYATYYADSVKDRFIIRADDSQSMLYLQMNNLKTEDTAMYYCVRDDPKRGMDYWGQGTSVTVSSAKTTPPSVYPLAPGSAAQTNSMVTLGCLVKGYFPEPVTVTWNSGSLSSGVHTFPAVLQSDLYTLSSSVTVPSSTWPSETVTCNVAHPASSTKVDKKIE
light: GIVMSQSPSSLAVSVGEKVTMSCKPSQSLLYSRNQKIYLAWYQQKPGQSPKLLIYWASTRESGVPDRFTGSGSGTDFTLIISSVRAEDLAVYYCQQYYNYPLTFGAGTKLELKRADAAPTVSIFPPSSEQLTSGGASVVCFLNNFYPKDINVKWKIDGSERQNGVLNSWTDQDSKDSTYSMSSTLTLTKDEYERHNSYTCEATHKTSTSPIVKSFNR
- clinical observations ([1]; drug loading of 2, 200 mg/kg): limb weakness at day 1 but recovered by day 3
- loss in body weight ([1]; drug loading of 2, 200 mg/kg): 25%
- MTD ([1]; drug loading of 2, single dose tail vein, BALB/c mice): > 100 mg/kg
- clinical observations ([1]; drug loading of 5, 100 mg/kg): slight limpness and closed front limbs but recovered by day 3
- weight loss ([1]; drug loading of 5, 100 mg/kg): 27%
- clinical observations ([1]; drug loading of 5, 200 mg/kg): limpness and closed front limbs and weakness at days 1 and 2
- clinical observations ([1]; drug loading of 5, 25 and 50 mg/kg): no signs of toxicity or weight loss
- clinical observations ([1]; drug loading of 9, 25 mg/kg): no signs of toxicity or weight loss
- clinical observations ([1]; drug loading of 9, 50 mg/kg): slight limpness on day 2 but recovered by day 3
- weight loss ([1]; drug loading of 9, 50 mg/kg, by day 5): 30%
- clinical observations ([1]; drug loading of 9, 100 and 200 mg/kg): limpness, closed front limbs and weakness by day 1 which continued through day 2
- growth inhibition of the tumor (PANC-1 xenograft; 0.2 mg/kg i.v. q7dx3 combined with 60 mg/kg gemcitabine i.p. q3dx5): 88%
- tumor response (PANC-1 xenograft; 1 and 5 mg/kg i.v. q7dx3 combined with 60 mg/kg gemcitabine i.p. q3dx5): tumor regression
- growth inhibition of the tumor compared to vehicle (PANC-1 xenograft; drug loading of 8, 0.2 mg/kg i.v. q7dx3, day 28 post-initial dose): 38%
- growth inhibition of the tumor compared to vehicle (PANC-1 xenograft; drug loading of 8, 1 mg/kg i.v. q7dx3, day 28 post-initial dose): 48%
- growth inhibition of the tumor compared to vehicle (PANC-1 xenograft; drug loading of 8, 5 mg/kg i.v. q7dx3, day 28 post-initial dose): 76%
- visual observations ([2]; 146 days): no overt signs of toxicity
- average loss in body weight ([2]; first 6 days post injection): 30%
- serum half-life of the antibody portion ([3]; 1 mg/kg tail vein): 11.9 days
- serum half-life of the steroid drug portion ([3]; 1 mg/kg tail vein): 11 days
- serum stability half-life of the EDC ([3]; 1 mg/kg): 45 days
- serum half-life of the antibody portion ([3]; 10 mg/kg tail vein): 9.2 days
- serum half-life of the steroid drug portion ([3]; 10 mg/kg tail vein): 8 days
- serum stability half-life of the EDC ([3]; 10 mg/kg): 39 days
- EC50 (H520; H520 cells (no FXYD5 surface expression), 3 days incubation): > 50 nM
- activity on H520 cells (H520; H520 cells do not express dysadherin (FXYD5)): not active
